Assay results taken from patent US20200277392A1 (Hoffmann-La Roche, published 2020).

Key:
Assay in all cases: SPR ProteOn XPR36, biotinylated antigen captured on NLC chip, purified Fab as analyte, 1:1 Langmuir
[1] = molecular target: T1, GST huTnC fn5 mu A124 BC hu fn6 B (human fn5 and fn6, murine A124 BC)
T1 chain: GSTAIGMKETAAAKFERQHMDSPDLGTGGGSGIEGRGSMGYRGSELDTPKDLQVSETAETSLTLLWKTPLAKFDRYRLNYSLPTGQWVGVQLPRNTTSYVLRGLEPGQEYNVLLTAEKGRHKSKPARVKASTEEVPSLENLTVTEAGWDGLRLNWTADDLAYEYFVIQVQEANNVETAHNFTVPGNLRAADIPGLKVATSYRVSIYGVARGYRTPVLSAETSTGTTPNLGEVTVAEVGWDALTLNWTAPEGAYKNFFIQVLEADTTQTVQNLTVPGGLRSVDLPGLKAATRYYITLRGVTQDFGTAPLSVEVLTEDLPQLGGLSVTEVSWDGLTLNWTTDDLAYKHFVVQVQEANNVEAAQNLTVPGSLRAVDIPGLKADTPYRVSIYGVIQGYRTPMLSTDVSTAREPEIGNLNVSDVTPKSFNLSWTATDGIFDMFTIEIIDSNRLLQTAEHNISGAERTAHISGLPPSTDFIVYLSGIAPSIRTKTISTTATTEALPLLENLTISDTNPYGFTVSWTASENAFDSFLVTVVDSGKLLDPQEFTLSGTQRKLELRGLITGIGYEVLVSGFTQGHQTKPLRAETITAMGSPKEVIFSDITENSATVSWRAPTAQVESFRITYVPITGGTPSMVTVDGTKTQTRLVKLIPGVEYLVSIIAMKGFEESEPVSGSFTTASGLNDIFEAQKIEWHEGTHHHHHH
Procedure: (§1) Immobilization of antigens (ligand): Recombinant antigens were diluted with PBST (10 mM phosphate, 150 mM sodium chloride pH 7.4, 0.005% Tween 20) to 10 μg/ml, then injected at 30 μl/minute in vertical orientation. Injection of analytes: For ‘one-shot kinetics’ measurements, injection direction was changed to horizontal orientation, two-fold dilution series of purified Fab were injected simultaneously along separate channels 1-5, with association times of 200 s, and dissociation times of 240 s, respectively. Buffer (PBST) was injected along the sixth channel to provide an “in-line” blank for referencing. Association rate constants (kₒₙ) and dissociation rate constants (koff) were calculated using a simple one-to-one Langmuir binding model in ProteOn Manager v3.1 software by simultaneously fitting the association and dissociation sensorgrams. The equilibrium dissociation constant (KD) was calculated as the ratio koff/kₒₙ.

[2] = molecular target: T2, huTnC A4 B (human, biotinylated at the C-terminal Avi-tag)
T2 chain: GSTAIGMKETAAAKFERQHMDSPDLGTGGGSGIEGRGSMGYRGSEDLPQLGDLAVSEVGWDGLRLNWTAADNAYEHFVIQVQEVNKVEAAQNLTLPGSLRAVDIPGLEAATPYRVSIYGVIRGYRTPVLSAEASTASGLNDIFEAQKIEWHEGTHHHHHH
Procedure: as §1

[3] = molecular target: T3, huTnC A1 B (human, biotinylated at the C-terminal Avi-tag)
T3 chain: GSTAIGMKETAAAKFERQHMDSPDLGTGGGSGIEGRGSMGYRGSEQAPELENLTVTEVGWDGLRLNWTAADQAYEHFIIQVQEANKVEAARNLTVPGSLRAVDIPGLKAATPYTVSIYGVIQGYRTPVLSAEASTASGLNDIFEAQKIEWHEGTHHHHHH
Procedure: as §1

[4] = molecular target: T4, GST huTnC fn5 A1234 BC fn6 B (human, UniProt P24821 984-1798, biotinylated at the C-terminal Avi-tag)
T4 construct: also called Human GST-fused TnC fn5 A1234 BC fn6
T4 sequence: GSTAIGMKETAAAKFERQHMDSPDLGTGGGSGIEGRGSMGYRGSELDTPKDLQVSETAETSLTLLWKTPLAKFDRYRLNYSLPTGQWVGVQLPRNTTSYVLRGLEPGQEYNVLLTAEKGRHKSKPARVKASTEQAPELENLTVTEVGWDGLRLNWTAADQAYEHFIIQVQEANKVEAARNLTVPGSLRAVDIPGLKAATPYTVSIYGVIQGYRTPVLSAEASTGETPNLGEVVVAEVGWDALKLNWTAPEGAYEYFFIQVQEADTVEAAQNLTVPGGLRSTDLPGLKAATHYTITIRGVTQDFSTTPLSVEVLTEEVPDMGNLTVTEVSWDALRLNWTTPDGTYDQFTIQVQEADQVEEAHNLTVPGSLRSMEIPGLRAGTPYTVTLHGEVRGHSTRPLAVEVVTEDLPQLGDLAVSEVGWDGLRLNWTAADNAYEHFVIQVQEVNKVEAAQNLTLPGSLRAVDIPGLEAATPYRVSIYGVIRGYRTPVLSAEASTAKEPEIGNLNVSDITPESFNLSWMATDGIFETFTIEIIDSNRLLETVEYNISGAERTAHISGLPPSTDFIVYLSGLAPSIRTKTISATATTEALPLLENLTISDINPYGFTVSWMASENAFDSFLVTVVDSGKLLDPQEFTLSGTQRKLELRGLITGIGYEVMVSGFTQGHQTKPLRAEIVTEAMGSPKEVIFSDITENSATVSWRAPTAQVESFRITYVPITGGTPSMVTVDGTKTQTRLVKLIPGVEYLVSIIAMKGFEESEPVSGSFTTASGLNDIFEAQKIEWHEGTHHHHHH
Procedure: as §1

[5] = molecular target: T5, GST huTnC fn5 A1234 fn6 B (human, biotinylated at the C-terminal Avi-tag)
T5 chain: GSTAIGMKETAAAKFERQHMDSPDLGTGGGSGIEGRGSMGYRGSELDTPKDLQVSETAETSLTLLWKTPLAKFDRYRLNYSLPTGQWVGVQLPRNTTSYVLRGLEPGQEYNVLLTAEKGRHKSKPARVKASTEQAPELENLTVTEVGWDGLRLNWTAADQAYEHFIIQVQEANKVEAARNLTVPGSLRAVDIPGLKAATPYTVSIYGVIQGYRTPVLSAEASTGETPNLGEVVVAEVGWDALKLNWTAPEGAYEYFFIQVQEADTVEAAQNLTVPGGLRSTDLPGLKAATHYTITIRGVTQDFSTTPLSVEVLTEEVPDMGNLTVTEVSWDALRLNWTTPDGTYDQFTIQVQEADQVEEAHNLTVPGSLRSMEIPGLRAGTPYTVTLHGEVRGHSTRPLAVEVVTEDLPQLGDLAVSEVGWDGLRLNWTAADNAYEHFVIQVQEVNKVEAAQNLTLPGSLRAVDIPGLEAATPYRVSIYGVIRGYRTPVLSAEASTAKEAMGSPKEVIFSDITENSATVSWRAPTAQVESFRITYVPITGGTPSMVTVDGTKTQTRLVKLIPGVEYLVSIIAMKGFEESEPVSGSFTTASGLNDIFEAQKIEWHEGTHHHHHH
Procedure: as §1

B1: anti-TnC clone 18D4, purified Fab (Fab, V domains shown)
VH: QVQLVQSGAEVKKPGSSVKVSCKASGGTFSSYAISWVRQAPGQGLEWMGGIIPIFGTANYAQKFQGRVTITADKSTSTAYMELSSLRSEDTAVYYCAKGNFYGGLDYWGQGTTVTVSS
VL: DIQMTQSPSTLSASVGDRVTITCRASQSISSWLAWYQQKPGKAPKLLIYDASSLESGVPSRFSGSGSGTEFTLTISSLQPDDFATYYCQQNKKFPSGTFGQGTKVEIK
B1 gave a Kd [1] of 11.2 nM, a Kd [2] of 2 nM and a Kd [3] of 5.6 nM. The Kd [4] was 4 nM and the Kd [5] was 5 nM.
